Assay results: publication PMC8791620 (Science Advances, 2022)
Each block holds one binder with its values, some of them ahead of it.

B2: Trs31 (subunit of core TRAPP/TRAPPI in TRAPPII) (natural protein, S. cerevisiae, UniProt Q03337 1-283, looked up)
chain: MSQRIIQPSASDQQFPGKSDGYEYTVGPKQAITSEASTTYIPSRIYSESLLFKRQEASLSAMAFLFQEMISQLHRTCKTAGDFETKLSDYGHNIGIRLLELLNFRASVSPSSLPRASAFLSQNESSSKLSNASNSPGMLANSSTATSASANERLQEKQTESLSNYITKMRRRDLKILDILQFIHGTLWSYLFNHVSDDLVKSSERDNEYMIVDNFPTLTQFIPGENVSCEYFVCGIIKGFLFNAGFPCGVTAHRMPQGGHSQRTVYLIQFDRQVLDREGLRFG

Key:
[1] = target: T1, Trs23 (subunit of core TRAPP/TRAPPI in TRAPPII) (S. cerevisiae, UniProt Q03784 1-219); assay: cryo-EM structure
T1 sequence (looked up): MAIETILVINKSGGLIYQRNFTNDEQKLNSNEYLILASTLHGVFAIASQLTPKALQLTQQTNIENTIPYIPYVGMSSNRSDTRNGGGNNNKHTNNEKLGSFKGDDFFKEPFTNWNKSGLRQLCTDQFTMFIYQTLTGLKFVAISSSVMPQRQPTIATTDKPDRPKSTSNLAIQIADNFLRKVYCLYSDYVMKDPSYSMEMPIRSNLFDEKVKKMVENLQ

[2] = target: T2, Bet3 (subunit of core TRAPP/TRAPPI in TRAPPII) (S. cerevisiae, UniProt P36149 1-193); assay: cryo-EM structure
T2 sequence (looked up): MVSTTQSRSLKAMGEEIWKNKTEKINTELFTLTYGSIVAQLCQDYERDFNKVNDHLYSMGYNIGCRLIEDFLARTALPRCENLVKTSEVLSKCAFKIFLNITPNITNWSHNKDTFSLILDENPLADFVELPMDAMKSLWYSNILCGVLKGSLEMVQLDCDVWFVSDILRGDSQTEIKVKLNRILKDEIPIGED

[3] = target: T3, Trs120 (3xFLAG-tagged, subunit of TRAPPII) (S. cerevisiae, UniProt Q04183 1-1289); assay: cross-linking
T3 sequence: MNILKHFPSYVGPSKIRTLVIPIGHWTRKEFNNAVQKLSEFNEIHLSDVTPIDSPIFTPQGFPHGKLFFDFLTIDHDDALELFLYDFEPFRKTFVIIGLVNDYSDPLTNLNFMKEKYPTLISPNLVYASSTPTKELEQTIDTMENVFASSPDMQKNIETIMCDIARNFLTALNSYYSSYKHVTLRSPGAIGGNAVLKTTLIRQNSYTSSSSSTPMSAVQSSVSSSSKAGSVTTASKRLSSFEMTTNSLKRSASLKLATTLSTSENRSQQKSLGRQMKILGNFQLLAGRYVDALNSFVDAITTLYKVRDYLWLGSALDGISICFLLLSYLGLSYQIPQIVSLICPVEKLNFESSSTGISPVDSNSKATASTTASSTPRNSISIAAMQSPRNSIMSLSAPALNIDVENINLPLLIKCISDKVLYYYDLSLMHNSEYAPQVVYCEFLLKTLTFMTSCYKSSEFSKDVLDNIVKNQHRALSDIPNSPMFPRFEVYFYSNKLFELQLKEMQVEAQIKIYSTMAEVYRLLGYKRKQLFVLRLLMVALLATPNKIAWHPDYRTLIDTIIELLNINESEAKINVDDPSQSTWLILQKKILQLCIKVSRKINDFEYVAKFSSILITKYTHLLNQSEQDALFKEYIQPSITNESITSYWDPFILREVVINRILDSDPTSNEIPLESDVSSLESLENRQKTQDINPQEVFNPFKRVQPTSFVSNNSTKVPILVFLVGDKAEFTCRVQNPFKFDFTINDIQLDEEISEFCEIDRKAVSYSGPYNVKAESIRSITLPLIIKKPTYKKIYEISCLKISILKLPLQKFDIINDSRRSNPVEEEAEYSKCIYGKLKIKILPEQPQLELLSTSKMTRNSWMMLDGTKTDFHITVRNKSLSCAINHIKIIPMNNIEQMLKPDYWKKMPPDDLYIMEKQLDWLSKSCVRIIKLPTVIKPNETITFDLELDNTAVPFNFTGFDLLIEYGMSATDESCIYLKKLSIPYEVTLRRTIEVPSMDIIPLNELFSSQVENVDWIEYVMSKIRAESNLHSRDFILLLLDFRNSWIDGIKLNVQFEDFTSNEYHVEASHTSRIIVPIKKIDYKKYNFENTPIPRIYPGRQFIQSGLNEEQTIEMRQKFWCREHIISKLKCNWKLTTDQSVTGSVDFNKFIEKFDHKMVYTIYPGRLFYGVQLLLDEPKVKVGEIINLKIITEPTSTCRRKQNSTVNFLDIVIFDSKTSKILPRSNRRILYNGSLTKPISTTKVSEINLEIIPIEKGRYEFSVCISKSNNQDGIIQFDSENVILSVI

[4] = target: B2; assay: cryo-EM structure

- binding result [1]: binds
- binding result [2]: binds
B1: Bet5 (subunit of core TRAPP/TRAPPI in TRAPPII) (natural protein, S. cerevisiae, UniProt Q03630 1-159, looked up)
chain: MGIYSFWIFDRHCNCIFDREWTLASNSASGTINSKQNEEDAKLLYGMIFSLRSITQKLSKGSVKNDIRSISTGKYRVHTYCTASGLWFVLLSDFKQQSYTQVLQYIYSHIYVKYVSNNLLSPYDFAENENEMRGQGTRKITNRNFISVLESFLAPMVNQ

Binder: B2
- binding result [3]: binds

- binding result [4]: binds
B3: His-sumo-Ypt32 (wild type) (enzyme, S. cerevisiae, UniProt P51996 1-222, looked up)
chain: MSNEDYGYDYDYLFKIVLIGDSGVGKSNLLSRFTTDEFNIESKSTIGVEFATRTIEVENKKIKAQIWDTAGQERYRAITSAYYRGAVGALIVYDISKSSSYENCNHWLTELRENADDNVAVGLIGNKSDLAHLRAVPTDEAKNFAMENQMLFTETSALNSDNVDKAFRELIVAIFQMVSKHQVDLSGSGTNNMGSNGAPKGPTISLTPAPKEDKKKKSSNCC
